The record followed here is the DeepSol protein solubility set.

The nature of this data set: soluble on expression in E. coli; label from the status in PepcDB or PDB records.
For “AGWQSYVDNLMCDGCCQEAAIVGYCDAKYVWAATAGGVFQSITPIEIDMIVGKDREGFFTNGLTLGAKKCSVIRDSLYVDGDCTMDIRTKSQGGEPTYNVAVGRAGRALVIVMGKEGVHGGTLNKKAYELALYLRRSDV”, the “soluble on expression in E. coli” value is recorded as “soluble”.

On to “AHHHHHHASAKWVCKICGYIYDEDAGDPDNGISPGTKFEELPDDWVCPICGAPKSEFEKLEDGSIEIRTHTALHVLKGAVVKVLGEGAKWTASVYVNGNHGRLTVKFNRKPTHEEIREIERLANEKIKENVPIQIYELSREEAEKIFGDEMYDLFPVPEHVRTLKVVVIEDWNVNACNKEHTKTTGEIGEIKIRKVRFRKSKELLEISFDVL”, for which the “soluble on expression in E. coli” value is listed as “soluble”.

In the case of “AHHHHHHGSEAWRGRSQAVVDNLAPRVVDMLVPEGFKPTQEEQLSSYDVEKKELATVYMITLVSGSGEKEEEVEEETPTQTETQTPTETRTETKTPTETTTTTPTETKETPTQTTTTQPARTETQGGICGPGLIVLLAALGVLRRRS”, the “soluble on expression in E. coli” value was “not soluble”.

Consider “AHHHHHHGSEKPRFKGHLKLLILKLLEENPLHGYGIMTRLEETFGIKVSPGAIYPILSSLRKSGLIEVAGEGKREKKLHKITEKGREYLRKHEDEVKEALEIANKLKEFSELGGKEVAQVLREVVENIDKLSEEQKAALAREFSNFVKRIKLILLGGEQYGGNNSGEPR”, for which the “soluble on expression in E. coli” value is given as “soluble”.

For the sequence “AHHHHHHGSEYTIVDGEEYIEEIKKLDREISYSFVRFPISYEEYEERHEELFESLLSQGEHKFFVALNERSELLGHVWICITLDTVDYVKIAYIYDIEVVKWARGLGIGSALLRKAEEWAKERGAKKIVLRVEIDNPAVKWYEERGYKARALIMEKPI”, the “soluble on expression in E. coli” value is listed as “soluble”.

With “AHHHHHHGSGETLRIAFIYDVIYPWVKGGVERRLYEIAKRLAEKHEVHIYGYKHWDGKKIQEMNGIFYHGTIKPKKIYHGNRRAILPPIFHSINLLFLLKGQHLDIIDCQATPYFPCYASRVSNSNLVITWHEFWGNYWLKYLGRAGFFGKIIERGLFVLTDNHIAVSLKTKKDLYKAGLRKNIYVVPNGIDFEKIQEIKPSSYTSDIIFVGRLIKEKNVPLLLKALTIIKQDIPDVKAVVVGDGPEREYLEKLSFKLNLQDNVKFLGFLNRYEDVVALMKASKVFAFPSLREGFGIVVIEANASGLPVVTVEHEMNASKDLILEWKNGFIAKVNEKDFAEKILIALEKRKKMKKLSTEIARKYNWNEIVKKLERYYRWIA”, the “soluble on expression in E. coli” value was “soluble”.

As for “AHHHHHHGSGRDKKNTALLDIARDIGGDEAVEVVKALEKKGEATDEELAELTGVRVNTVRKILYALYDAKLATFRRVRDDETGWYYYYWRIDTKRLPEVIRTRKLQELEKLKQMLQEETSETYYHCGTPGHPKLTFDEAFEYGFQCPICGEILYEYDNSKIIEELKKRIEELEIELGLRSPPKEEKPKKATRRKKSRSGKKKK”, the “soluble on expression in E. coli” value is “not soluble”.

As to “AHHHHHHGSIILDNHFHVDPNHGLFLEAVKQFQRAGGTHLIVVYKTAHDYGFPGLKAEDFMKAMDFHIELVEKINRETQVKAYAVVGVHPAEFDYLARNKGLEFARNEVMKALEYAQKLCLEGKAVGIGEVGRPHYEVPQQIWEVSIEIMKYAMELAKDADCAVQLHTESFNEEKFRELGEYIREVGIKPYKVVKHFSPPLVNVAKEVGVFPSIIASKKNIEEAIKQGNRFLMETDYIDDKRRPGAVLGPKTVPKRTKEFLQRGIFTEEDVYKIHVENPKKVYGIEI”, the “soluble on expression in E. coli” value is recorded as “not soluble”.

In the case of “AHHHHHHGSISREQILEVLEKYDKEKITIGVIGSHSALDITDGAKEEGFPTLVVAQRGRHKTYEKYFKLRKTRDGLVKGFIDEVIVLEKFSQIIDIQEELRKRNVIFIPNRSFVVYTGIDRVENEFLVPMFGTRSLLRTEERSEEKSYYWLLEKAKLPYPEEVKPEEIDEVGLVIVKLPHAKKRLERGFFTAASYKEFKEKSEKLIRLGVITREDLEKARIERYIIGPVFNFDFFYSPIDEEIELLGIDWRFETSLDGHVRLPAAQQLTLPEWQFEPEYTVCGHASSTLRESLLEKVFDMAEKYVEATKKYYPPGIIGPFTLQTAVDKDLNFYIYDVAPRTGGGTNIHMAMGHPYGNSLWRKPMSTGRRIALEIKRAIELDELEKVVT”, the “soluble on expression in E. coli” value is “not soluble”.

For the sequence “AHHHHHHGSKDDIVESVETLVRKGMIEEAIKIVENLQENFDKVIALCKIAELTRDESFLEDAIYFLKKIKDHDNKAIGYGEVAKVYALLGYEEESLELFEEAVKLTKNLNPVDKAITLTILANRLALAGFVDLSLEMFQNAFAEIIELNIELTKKTDLIIQLAEILEASGDALDSENALKFYEMAQDIYKNLKLGQREGIIEKKIELTRTLMHTSYPDIRKLAYEGRFIQALHEIEKRFGGNNVIPLLELTAWAYKTNVFERLKLKEITMEKLSASKLSDEEKFKVVQLLLEIDDTLKAYEIAITLESQELREKALVLIGLKMIDEGEVRFVEEKIFPLLSDEKREEFINFLKNLPIA”, the “soluble on expression in E. coli” value is recorded as “soluble”.

Take “AHHHHHHGSKKITISSLLLLLLISTNLNLAYDSQESGIKNIIILIGDGMGMSHVQITKLVYGHLNMEEFPIIGFELTESLSGEVTDSAAAGTAIATGVKTYNRMISVTNITGKVTNLTTLLEIAQVLGKSTGLVTTTRITHATPAVFASHVPDRDMEEEIARQLIAHRVNVLLGGGRKKFDENTLKMAKEQGYNIVFTKEELEKAEGEFILGLFADSHIPYVLDRKPEDVGLLEMTKKAISILEKNPNGFFLMIEGGRIDHAAHENDIASVVAETKEFDDVVGYVLEYAKKRGDTLVIVLADHETGGLGLGLTYGDAINEDVIRNINASVSKIASEIRATNDIKRVIKKYTGFELTEDEINYIEEAINLADEYALQNAIADIINKRVGVGFVSHKHTGAPVSLLAYGPGAENFAGFLHHVDTAKLIAKLMLFGKKDIPVTILGISGVKGDITGDFKVDEQDAYVTLMMLLGERVDTELERKVDMNNNGIIELGDVLLILQES”: the “soluble on expression in E. coli” value is listed as “soluble”.

With “AHHHHHHGSNLRNKLKLYVITDRRLKPEVESVREALEGGATAIQMRIKNAPTREMYEIGKTLRQLTREYDALFFVDDRVDVALAVDADGVQLGPEDMPIEVAKEIAPNLIIGASVYSLEEALEAEKKGADYLGAGSVFPTKTKEDARVIGLEGLRKIVESVKIPVVAIGGINKDNAREVLKTGVDGIAVISAVMGAEDVRKATEELRKIVEEVLG”, the “soluble on expression in E. coli” value is “soluble”.

Regarding “AHHHHHHGSNSKEFRKIALVGASKNPAKYGNIILKDLLSKGFEVLPVNPNYDEIEGLKCYRSVRELPKDVDVIVFVVPPKVGLQVAKEAVEAGFKKLWFQPGAESEEIRRFLEKAGVEYSFGRCIMVETSNKKIFLEV”, the “soluble on expression in E. coli” value is “soluble”.

As to “AHHHHHHGSPRWGRGRRRKMRMIEFIPYARHFYPALPRFGPPKPPIIMTYEEFEALRLVDYEGLTQEEAGKRMGVSRGTIWRALTSARKKVAQMLVEGRELIILPQGNEVIKSDEE”, the “soluble on expression in E. coli” value was “not soluble”.

As for “AHHHHHHGSRELVEIIKGIGIEGAKEVEEKVDRQFYALQYLFRHQDPEMFIKLVIANSLVSYQLTGRGEDWWWEFARYFSGREVDSIWKAYGEFLPKSKNNRRLIEAKLNRIRKVEGFLSTLTLKDLEGYYKNMKMLWKALIKIMGSREDSKTIVFTVKMFGYASRIAFSRFIPYPMEIPIPEDLRIKSVTSKLTQEKPTKFWMKIGQESGVPPLHIDSLIWPLLGNADLTPLDIELRNKLMKLTELLGL”, the “soluble on expression in E. coli” value is recorded as “soluble”.

Consider “AHHHHHHGSYILQKNKGVIRVKDIAKMMRVKPPTVVEALKKLRDKGFVKYEEHEHILLTEKGLEVAKKTYSKHQLLTEFFINILGIPPEIAERDACQFEHYVSEVTVHRIREFISYIQQECPYALKQFLKKVREKDQAVAK”, for which the “soluble on expression in E. coli” value is listed as “not soluble”.

On to “AHMAMIKMSPEEIRAKSQSYGQGSDQIRQILSDLTRAQGEIAANWEGQAFSRFEEQFQQLSPKVEKFAQLLEEIKQQLNSTADAVQEQDQQLSNNFGLQ”, for which the “soluble on expression in E. coli” value is listed as “soluble”.

Turning to “AIAAAPIESLLNEICESEDPIEELKSLRTAVLATPVSGLRPAVSGARLEIIFSLLNTNDKEQIEVCVEILSRVLQALEPVQLAQNYRTALQSGLNHPDDSVKVLTLTQIGRVAGHTEGVTQMLNNVEILHDVIQCISVERIAVAKEAIAALSKLSNTKAGLDALFRSDLLNKLKDVMLTSDIIRYRVYELIVEVSTVSPVSLGYCANSGLISQMLEELTGDDVLVRATAIEMVTNLAQSQHGRQYLAQQGIMDKISSVQKIFGAHNYLKLKTYLNEGSYYVTAVSAVTTEGAD”, the “soluble on expression in E. coli” value is on record as “soluble”.

Turning to “AIAADGQMPFSCHYPSRLRRDPFRDSPLSSRLLDDGFGMDPFPDDLTASWPDWALPRLSSAWPGTLRSGMVPRGPTATARFGVPAEGRTPPPFPGEPWKVCVNVHSFKPEELMVKTKDGYVEVSGKHEEKQQEGGIVSKNFTKKIQLPAEVDPVTVFASLSPEGLLIIEAPQVPPYSTFGESSFNNELPQDSQEVTCT”, the “soluble on expression in E. coli” value is reported as “soluble”.

With “AIADELNSPLGERAQGASLAHVVWSDPQWLERYPLTFENVLTYFSRSPFYDPTCNNELVRMQMHPELQGEMLYYTQREEELLLGMQGVEYVPLCSSDAHELFIIRKQVRRSADEVHVTNLYYILYGQVYEAPAFSTVLLVRLRQSADFLVRSLGLLRQWLSKKEYGEPGATGHGHEDTLLLQLLRKAQQRNRQL”, the “soluble on expression in E. coli” value was “soluble”.

In the case of “AIADTRSLQDFQDLCTFDVFKSFGHYYGYGVDQQALIDQEFKRIKGVTYLDHAGTTLFPESLIKGFHDDIPRNVYGNPHSHNSSSRLTHDTVESVRYKILAHFNTSPEDYSVIFTSGCTAALKLVADTFPWKPMSNKEPGSQFCYLTDNHTSVVGIRGATALQGVGTISVSPREVETRARNKTQTNGEEECSTPHLFCYPAQSNFSGRKYSLSYVKGIQSQQLYPACEHHGQWFVLLDAACFVSCSPLDLSQYPADFVPISFYKMFGFPTGLGALLVRNEAAEVLRKTYFGGGTAAAYLVEENYFIPKPNLASR”, the “soluble on expression in E. coli” value is “soluble”.

With “AIALPADGIVCFPGQTWEKVLSKVKKAVVFMDDRCSESLHWNGGAALLFEAGARNIKQFSSFEAGAQNEPKAVFVVSTVLKGRTADIIKDIISLSHFQYCVVFTTVPHSIHLLANNVNADLEGNPVFEQFEEKLCEWMGDMNYTAEVMHAPVVFAPLTEHLHLLPAFSNLFPLLDVDLESINEKRPEKKRFGSLMDMDVHSLPPGLQIQIKTLALTLNGLFEFISTREESFSVGPMSRLIATELANLPQAKNRRKTAPNKASVVFVDRTLDLTGAVGHHGDNLAEKILSVLPQLPGHVTDVQVDMLELTHLKPTTDTKGILAPGCLAQNQSATAKLLWETMLVAKQKEAVIEVRRQLVEAASKENLPIKMSLGRVTAEQLCSYVQLFRDSWGALESHSGVLQLGLAAAQALRHPALQRWDACLAFERLLLQALGDSDLAGVLKQLLPLIKSSESGTGSDLSMDDLLVLLVYVYSVAKEACSGGSEEEKQVEKVEQELIGALTLRLTRETTLSPLVQEVTGVSCPEELTMECAHSVLESMFGTLRGVARARDHLKNFSSVFTPGDGAHQDQHRYILILMIQDQHQ”, the “soluble on expression in E. coli” value was “soluble”.

On to “AIAPLGEEKNGKCDGSIYVNNPHLDSMTDDILYHFNLGTSTHDLPKMFGDVKFVCVGGSPWRMKSFTEYIAKELGLVDPNAEYPNICAGTDRYAMYKVGPVLSVSHGMGIPSISIMLHELIKLLYHARCTDVTVVRIGTSGGIGLKPGTVVVTKQSVDSLFQPHLEQTILGKPVVRSTELDKELAEELLQCGKELGEFEIIIGNTMCTLDFYEGSNVFEDKCTRIAAYSFKIHVL”, for which the “soluble on expression in E. coli” value is recorded as “soluble”.

With “AIASSLVYPVSQSYHYLSTSNNRLFSAVPSEEKSNKEVKGKAQETSKENTSPATLQDSFGFQLKTGTPDRMPSSFDQATGSERAELEDPDLYRNPEKYVNSRVMIAPFGTKEKPLLIPSRYDSRIIGCTGREAPNDHGVYYMTVKENHDKVCPLCGQVFRLKKVAGGEEASHHHHE”, the “soluble on expression in E. coli” value is “soluble”.
